# Source: IntAct's records for PubMed 25588830
# B1: Septin-12 (Homo sapiens), Q8IYM1 (parent)
# chain: MDPLRRSPSPCLSSQPSSPSTPPCEMLGPVGIEAVLDQLKIKAMKMGFEFNIMVVGQSGLGKSTMVNTLFKSKVWKSNPPGLGVPTPQTLQLHSLTHVIEEKGVKLKLTVTDTPGFGDQINNDNCWDPILGYINEQYEQYLQEEILITRQRHIPDTRVHCCVYFVPPTGHCLRPLDIEFLQRLCRTVNVVPVIARADSLTMEEREAFRRRIQQNLRTHCIDVYPQMCFDEDINDKILNSKLRDRIPFAVVGADQEHLVNGRCVLGRKTKWGIIEVENMAHCEFPLLRDLLIRSHLQDLKDITHNIHYENYRVIRLNESHLLPRGPGWVNLAPASPGQLTTPRTFKVCRGAHDDSDDEF
# partner: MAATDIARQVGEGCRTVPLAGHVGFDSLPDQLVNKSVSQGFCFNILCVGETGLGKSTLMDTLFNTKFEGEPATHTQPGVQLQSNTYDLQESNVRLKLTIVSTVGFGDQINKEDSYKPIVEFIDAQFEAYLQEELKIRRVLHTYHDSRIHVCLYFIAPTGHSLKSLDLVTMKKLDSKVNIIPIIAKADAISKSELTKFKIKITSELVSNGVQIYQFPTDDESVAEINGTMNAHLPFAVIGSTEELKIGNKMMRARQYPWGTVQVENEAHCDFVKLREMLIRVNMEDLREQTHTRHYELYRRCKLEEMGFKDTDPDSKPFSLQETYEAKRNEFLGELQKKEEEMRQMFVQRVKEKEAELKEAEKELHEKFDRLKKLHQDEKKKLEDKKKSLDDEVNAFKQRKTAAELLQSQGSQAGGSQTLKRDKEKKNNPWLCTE
# B2: Septin-12 (Homo sapiens), Q8IYM1 (parent)
# chain: B1 chain
# partner: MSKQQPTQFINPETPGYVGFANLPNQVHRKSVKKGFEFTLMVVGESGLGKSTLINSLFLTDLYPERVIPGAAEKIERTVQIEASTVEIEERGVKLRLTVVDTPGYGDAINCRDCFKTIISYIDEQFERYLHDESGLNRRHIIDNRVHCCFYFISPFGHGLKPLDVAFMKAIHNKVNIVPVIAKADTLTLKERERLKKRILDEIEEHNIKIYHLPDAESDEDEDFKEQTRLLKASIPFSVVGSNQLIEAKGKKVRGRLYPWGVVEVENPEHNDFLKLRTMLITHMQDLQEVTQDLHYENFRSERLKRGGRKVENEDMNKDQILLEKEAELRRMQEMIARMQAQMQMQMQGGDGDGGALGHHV
# B3: Septin-12 (Homo sapiens), Q8IYM1 (parent)
# chain: B1 chain
# partner: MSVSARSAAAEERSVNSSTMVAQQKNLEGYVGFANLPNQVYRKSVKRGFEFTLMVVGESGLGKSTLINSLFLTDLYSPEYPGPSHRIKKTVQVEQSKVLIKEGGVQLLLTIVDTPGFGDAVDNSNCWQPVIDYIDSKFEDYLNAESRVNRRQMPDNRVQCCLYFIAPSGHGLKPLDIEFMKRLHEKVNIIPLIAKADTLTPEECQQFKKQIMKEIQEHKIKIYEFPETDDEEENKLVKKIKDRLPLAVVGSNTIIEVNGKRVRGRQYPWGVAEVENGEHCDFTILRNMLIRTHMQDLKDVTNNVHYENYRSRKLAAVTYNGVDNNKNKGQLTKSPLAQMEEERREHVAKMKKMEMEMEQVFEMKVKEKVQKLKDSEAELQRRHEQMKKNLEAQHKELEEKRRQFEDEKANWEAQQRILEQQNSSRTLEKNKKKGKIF
# B4: Septin-12 (Homo sapiens), Q8IYM1 (parent)
# chain: B1 chain
# partner: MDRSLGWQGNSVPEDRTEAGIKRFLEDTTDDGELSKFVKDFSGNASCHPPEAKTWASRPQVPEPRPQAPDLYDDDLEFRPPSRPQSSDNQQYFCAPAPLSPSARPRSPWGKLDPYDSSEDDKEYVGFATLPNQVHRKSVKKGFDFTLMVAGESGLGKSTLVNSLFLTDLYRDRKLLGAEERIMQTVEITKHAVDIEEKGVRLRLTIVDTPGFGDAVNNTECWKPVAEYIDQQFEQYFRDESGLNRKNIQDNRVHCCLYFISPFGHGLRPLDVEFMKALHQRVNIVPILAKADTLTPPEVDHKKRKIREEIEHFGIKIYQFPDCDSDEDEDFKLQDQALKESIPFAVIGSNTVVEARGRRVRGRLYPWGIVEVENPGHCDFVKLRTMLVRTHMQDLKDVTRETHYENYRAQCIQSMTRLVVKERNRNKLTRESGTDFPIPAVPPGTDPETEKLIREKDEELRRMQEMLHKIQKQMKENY
# Variants of: B1
# Settings: with sept6_human SEPTIN6, Q14141
row,Variant,effect of a mutation on the interaction
1,MDPLRRSPSPCLSSQPSSPSTPPCEMLGPVGIEAVLDQLKIKAMKMGFEFNIMVVGQSGLGKSTMVNTLFKSKVWKSNPPGLGVPTPQTLQLHSLTHVIEEKGVKLKLTVTDTPGFGDQINNDNCWDPILGYINEQYEQYLQEEILITRQRHIPDTRVHCCVYFVPPTGHCLRPLDIEFLQRLCRTVNVVPVIARANSLTMEEREAFRRRIQQNLRTHCIDVYPQMCFDEDINDKILNSKLRDRIPFAVVGADQEHLVNGRCVLGRKTKWGIIEVENMAHCEFPLLRDLLIRSHLQDLKDITHNIHYENYRVIRLNESHLLPRGPGWVNLAPASPGQLTTPRTFKVCRGAHDDSDDEF [D197N],disrupting interaction

# Variants of: B2
# Settings: with sept2_human SEPTIN2, Q15019
row,Variant,effect of a mutation on the interaction
1,MDPLRRSPSPCLSSQPSSPSTPPCEMLGPVGIEAVLDQLKIKAMKMGFEFNIMVVGQSGLGKSTMVNTLFKSKVWKSNPPGLGVPTPQTLQLHSLTHVIEEKGVKLKLTVTDTPGFGDQINNDNCWDPILGYINEQYEQYLQEEILITRQRHIPDTRVHCCVYFVPPTGHCLRPLDIEFLQRLCRTVNVVPVIARANSLTMEEREAFRRRIQQNLRTHCIDVYPQMCFDEDINDKILNSKLRDRIPFAVVGADQEHLVNGRCVLGRKTKWGIIEVENMAHCEFPLLRDLLIRSHLQDLKDITHNIHYENYRVIRLNESHLLPRGPGWVNLAPASPGQLTTPRTFKVCRGAHDDSDDEF [D197N],disrupting interaction

# Variants of: B3
# Settings: with sept7_human SEPTIN7, Q16181
row,Variant,effect of a mutation on the interaction
1,MDPLRRSPSPCLSSQPSSPSTPPCEMLGPVGIEAVLDQLKIKAMKMGFEFNIMVVGQSGLGKSTMVNTLFKSKVWKSNPPGLGVPTPQMLQLHSLTHVIEEKGVKLKLTVTDTPGFGDQINNDNCWDPILGYINEQYEQYLQEEILITRQRHIPDTRVHCCVYFVPPTGHCLRPLDIEFLQRLCRTVNVVPVIARADSLTMEEREAFRRRIQQNLRTHCIDVYPQMCFDEDINDKILNSKLRDRIPFAVVGADQEHLVNGRCVLGRKTKWGIIEVENMAHCEFPLLRDLLIRSHLQDLKDITHNIHYENYRVIRLNESHLLPRGPGWVNLAPASPGQLTTPRTFKVCRGAHDDSDDEF [T89M],disrupting interaction strength
2,MDPLRRSPSPCLSSQPSSPSTPPCEMLGPVGIEAVLDQLKIKAMKMGFEFNIMVVGQSGLGKSTMVNTLFKSKVWKSNPPGLGVPTPQTLQLHSLTHVIEEKGVKLKLTVTDTPGFGDQINNDNCWDPILGYINEQYEQYLQEEILITRQRHIPDTRVHCCVYFVPPTGHCLRPLDIEFLQRLCRTVNVVPVIARANSLTMEEREAFRRRIQQNLRTHCIDVYPQMCFDEDINDKILNSKLRDRIPFAVVGADQEHLVNGRCVLGRKTKWGIIEVENMAHCEFPLLRDLLIRSHLQDLKDITHNIHYENYRVIRLNESHLLPRGPGWVNLAPASPGQLTTPRTFKVCRGAHDDSDDEF [D197N],disrupting interaction strength

# Variants of: B3
# Settings: with sept7_human SEPTIN7, Q16181
# Remark: another data set of the same source
row,Variant,effect of a mutation on the interaction
1,MDPLRRSPSPCLSSQPSSPSTPPCEMLGPVGIEAVLDQLKIKAMKMGFEFNIMVVGQSGLGKSTMVNTLFKSKVWKSNPPGLGVPTPQMLQLHSLTHVIEEKGVKLKLTVTDTPGFGDQINNDNCWDPILGYINEQYEQYLQEEILITRQRHIPDTRVHCCVYFVPPTGHCLRPLDIEFLQRLCRTVNVVPVIARADSLTMEEREAFRRRIQQNLRTHCIDVYPQMCFDEDINDKILNSKLRDRIPFAVVGADQEHLVNGRCVLGRKTKWGIIEVENMAHCEFPLLRDLLIRSHLQDLKDITHNIHYENYRVIRLNESHLLPRGPGWVNLAPASPGQLTTPRTFKVCRGAHDDSDDEF [T89M],decreasing interaction
2,MDPLRRSPSPCLSSQPSSPSTPPCEMLGPVGIEAVLDQLKIKAMKMGFEFNIMVVGQSGLGKSTMVNTLFKSKVWKSNPPGLGVPTPQTLQLHSLTHVIEEKGVKLKLTVTDTPGFGDQINNDNCWDPILGYINEQYEQYLQEEILITRQRHIPDTRVHCCVYFVPPTGHCLRPLDIEFLQRLCRTVNVVPVIARANSLTMEEREAFRRRIQQNLRTHCIDVYPQMCFDEDINDKILNSKLRDRIPFAVVGADQEHLVNGRCVLGRKTKWGIIEVENMAHCEFPLLRDLLIRSHLQDLKDITHNIHYENYRVIRLNESHLLPRGPGWVNLAPASPGQLTTPRTFKVCRGAHDDSDDEF [D197N],disrupting interaction

# Variants of: B4
# Settings: with sept4_human SEPTIN4, O43236
row,Variant,effect of a mutation on the interaction
1,MDPLRRSPSPCLSSQPSSPSTPPCEMLGPVGIEAVLDQLKIKAMKMGFEFNIMVVGQSGLGKSTMVNTLFKSKVWKSNPPGLGVPTPQTLQLHSLTHVIEEKGVKLKLTVTDTPGFGDQINNDNCWDPILGYINEQYEQYLQEEILITRQRHIPDTRVHCCVYFVPPTGHCLRPLDIEFLQRLCRTVNVVPVIARANSLTMEEREAFRRRIQQNLRTHCIDVYPQMCFDEDINDKILNSKLRDRIPFAVVGADQEHLVNGRCVLGRKTKWGIIEVENMAHCEFPLLRDLLIRSHLQDLKDITHNIHYENYRVIRLNESHLLPRGPGWVNLAPASPGQLTTPRTFKVCRGAHDDSDDEF [D197N],disrupting interaction
